Results published in patent publication US20120172293A1 (Takeda / Millennium, published 2012).
Starred links: 1 amine or outer side, 2 acyl side, 3 side chain; linkers in the order of their positions; H or OH if unused. Non-standard residues stand in square brackets, D forms with d. Primed or numbered codes have the meaning given here. *: point of attachment. Ser(Me)(3) = methylserine, COC[C@H](N[*:1])C(=O)[*:2]; Azetidine3carboxylic = O=C(C1CN([*:1])C1)[*:2]; dHyp = O=C(O)[C@H]1C[C@H](O)CN1; Cha = N[C@@H](CC1CCCCC1)C(=O)O; dPip = O=C(O)[C@H]1CCCCN1; Isobutyryl = CC(C)C(=O)*; NMeA = CN[C@@H](C)C(=O)O; dNMeA = CN[C@H](C)C(=O)O; Nva = CCC[C@H](N)C(=O)O; Abu = CC[C@H](N)C(=O)O; Nleu = CC(C)CNCC(=O)O; Aib = CC(C)(N)C(=O)O; Bz = O=C(c1ccccc1)*; Sar = CNCC(=O)O

B1: Ac-[D-Ser23, Sar24, Cha27,28,36, Aib31]-PYY(23-36) (peptide)
peptide: Ac-[dS][Sar]RH[Cha][Cha]NL[Aib]TRQR[Cha]-NH2
SMILES: CC(=O)N[C@H](CO)C(=O)N(C)CC(=O)N[C@@H](CCCNC(=N)N)C(=O)N[C@@H](Cc1c[nH]cn1)C(=O)N[C@@H](CC1CCCCC1)C(=O)N[C@@H](CC1CCCCC1)C(=O)N[C@@H](CC(N)=O)C(=O)N[C@@H](CC(C)C)C(=O)NC(C)(C)C(=O)N[C@H](C(=O)N[C@@H](CCCNC(=N)N)C(=O)N[C@@H](CCC(N)=O)C(=O)N[C@@H](CCCNC(=N)N)C(=O)N[C@@H](CC1CCCCC1)C(N)=O)[C@@H](C)O
B2: Isobutanoyl-[Abu26, Cha27,36, Ser28, Aib31]-PYY(25-36) (peptide)
peptide: Isobutyryl-R[Abu][Cha]SNL[Aib]TRQR[Cha]-NH2
SMILES: CC[C@H](NC(=O)[C@H](CCCNC(=N)N)NC(=O)C(C)C)C(=O)N[C@@H](CC1CCCCC1)C(=O)N[C@@H](CO)C(=O)N[C@@H](CC(N)=O)C(=O)N[C@@H](CC(C)C)C(=O)NC(C)(C)C(=O)N[C@H](C(=O)N[C@@H](CCCNC(=N)N)C(=O)N[C@@H](CCC(N)=O)C(=O)N[C@@H](CCCNC(=N)N)C(=O)N[C@@H](CC1CCCCC1)C(N)=O)[C@@H](C)O
B3: Ac-[D-Pic(2)24, Cha27,28,36, Aib31]-PYY(23-36) (peptide)
peptide: Ac-S[dPip]RH[Cha][Cha]NL[Aib]TRQR[Cha]-NH2
SMILES: CC(=O)N[C@@H](CO)C(=O)N1CCCC[C@@H]1C(=O)N[C@@H](CCCNC(=N)N)C(=O)N[C@@H](Cc1c[nH]cn1)C(=O)N[C@@H](CC1CCCCC1)C(=O)N[C@@H](CC1CCCCC1)C(=O)N[C@@H](CC(N)=O)C(=O)N[C@@H](CC(C)C)C(=O)NC(C)(C)C(=O)N[C@H](C(=O)N[C@@H](CCCNC(=N)N)C(=O)N[C@@H](CCC(N)=O)C(=O)N[C@@H](CCCNC(=N)N)C(=O)N[C@@H](CC1CCCCC1)C(N)=O)[C@@H](C)O
B4: Ac-[Ser(Me)23, D-Pro24, Abu26, Cha27,28,36, Aib31]-PYY(23-36) (peptide)
peptide: Ac-[Ser(Me)(3)][dP]R[Abu][Cha][Cha]NL[Aib]TRQR[Cha]-NH2
SMILES: CC[C@H](NC(=O)[C@H](CCCNC(=N)N)NC(=O)[C@H]1CCCN1C(=O)[C@H](COC)NC(C)=O)C(=O)N[C@@H](CC1CCCCC1)C(=O)N[C@@H](CC1CCCCC1)C(=O)N[C@@H](CC(N)=O)C(=O)N[C@@H](CC(C)C)C(=O)NC(C)(C)C(=O)N[C@H](C(=O)N[C@@H](CCCNC(=N)N)C(=O)N[C@@H](CCC(N)=O)C(=O)N[C@@H](CCCNC(=N)N)C(=O)N[C@@H](CC1CCCCC1)C(N)=O)[C@@H](C)O
B5: Ac-[D-Ser23, MeAla24, Cha27,28,36, Aib31]-PYY(23-36) (peptide)
peptide: Ac-[dS][NMeA]RH[Cha][Cha]NL[Aib]TRQR[Cha]-NH2
SMILES: CC(=O)N[C@H](CO)C(=O)N(C)[C@@H](C)C(=O)N[C@@H](CCCNC(=N)N)C(=O)N[C@@H](Cc1c[nH]cn1)C(=O)N[C@@H](CC1CCCCC1)C(=O)N[C@@H](CC1CCCCC1)C(=O)N[C@@H](CC(N)=O)C(=O)N[C@@H](CC(C)C)C(=O)NC(C)(C)C(=O)N[C@H](C(=O)N[C@@H](CCCNC(=N)N)C(=O)N[C@@H](CCC(N)=O)C(=O)N[C@@H](CCCNC(=N)N)C(=O)N[C@@H](CC1CCCCC1)C(N)=O)[C@@H](C)O
B6: Ac-[Abu23, D-Pro24, Abu26, Cha27,28,36, Aib31]-PYY(23-36) (peptide)
peptide: Ac-[Abu][dP]R[Abu][Cha][Cha]NL[Aib]TRQR[Cha]-NH2
SMILES: CC[C@H](NC(=O)[C@H](CCCNC(=N)N)NC(=O)[C@H]1CCCN1C(=O)[C@H](CC)NC(C)=O)C(=O)N[C@@H](CC1CCCCC1)C(=O)N[C@@H](CC1CCCCC1)C(=O)N[C@@H](CC(N)=O)C(=O)N[C@@H](CC(C)C)C(=O)NC(C)(C)C(=O)N[C@H](C(=O)N[C@@H](CCCNC(=N)N)C(=O)N[C@@H](CCC(N)=O)C(=O)N[C@@H](CCCNC(=N)N)C(=O)N[C@@H](CC1CCCCC1)C(N)=O)[C@@H](C)O
B7: Ac-[N(iBu)Gly24, Cha27,28,36, Aib31]-PYY(23-36) (peptide)
peptide: Ac-S[Nleu]RH[Cha][Cha]NL[Aib]TRQR[Cha]-NH2
SMILES: CC(=O)N[C@@H](CO)C(=O)N(CC(=O)N[C@@H](CCCNC(=N)N)C(=O)N[C@@H](Cc1c[nH]cn1)C(=O)N[C@@H](CC1CCCCC1)C(=O)N[C@@H](CC1CCCCC1)C(=O)N[C@@H](CC(N)=O)C(=O)N[C@@H](CC(C)C)C(=O)NC(C)(C)C(=O)N[C@H](C(=O)N[C@@H](CCCNC(=N)N)C(=O)N[C@@H](CCC(N)=O)C(=O)N[C@@H](CCCNC(=N)N)C(=O)N[C@@H](CC1CCCCC1)C(N)=O)[C@@H](C)O)CC(C)C
B8: Ac-[D-MeAla24, Cha27,28,36, Aib31]-PYY(23-36) (peptide)
peptide: Ac-S[dNMeA]RH[Cha][Cha]NL[Aib]TRQR[Cha]-NH2
SMILES: CC(=O)N[C@@H](CO)C(=O)N(C)[C@H](C)C(=O)N[C@@H](CCCNC(=N)N)C(=O)N[C@@H](Cc1c[nH]cn1)C(=O)N[C@@H](CC1CCCCC1)C(=O)N[C@@H](CC1CCCCC1)C(=O)N[C@@H](CC(N)=O)C(=O)N[C@@H](CC(C)C)C(=O)NC(C)(C)C(=O)N[C@H](C(=O)N[C@@H](CCCNC(=N)N)C(=O)N[C@@H](CCC(N)=O)C(=O)N[C@@H](CCCNC(=N)N)C(=O)N[C@@H](CC1CCCCC1)C(N)=O)[C@@H](C)O
B9: Ac-[Glu23, D-Pic(2)24, Cha27,28,36, Aib31]-PYY(23-36) (peptide)
peptide: Ac-E[dPip]RH[Cha][Cha]NL[Aib]TRQR[Cha]-NH2
SMILES: CC(=O)N[C@@H](CCC(=O)O)C(=O)N1CCCC[C@@H]1C(=O)N[C@@H](CCCNC(=N)N)C(=O)N[C@@H](Cc1c[nH]cn1)C(=O)N[C@@H](CC1CCCCC1)C(=O)N[C@@H](CC1CCCCC1)C(=O)N[C@@H](CC(N)=O)C(=O)N[C@@H](CC(C)C)C(=O)NC(C)(C)C(=O)N[C@H](C(=O)N[C@@H](CCCNC(=N)N)C(=O)N[C@@H](CCC(N)=O)C(=O)N[C@@H](CCCNC(=N)N)C(=O)N[C@@H](CC1CCCCC1)C(N)=O)[C@@H](C)O
B10: Ac-[Aze(3)24, Cha27,28,36, Aib31]-PYY(23-36) (peptide)
peptide: Ac-S[Azetidine3carboxylic]RH[Cha][Cha]NL[Aib]TRQR[Cha]-NH2
SMILES: CC(=O)N[C@@H](CO)C(=O)N1CC(C(=O)N[C@@H](CCCNC(=N)N)C(=O)N[C@@H](Cc2c[nH]cn2)C(=O)N[C@@H](CC2CCCCC2)C(=O)N[C@@H](CC2CCCCC2)C(=O)N[C@@H](CC(N)=O)C(=O)N[C@@H](CC(C)C)C(=O)NC(C)(C)C(=O)N[C@H](C(=O)N[C@@H](CCCNC(=N)N)C(=O)N[C@@H](CCC(N)=O)C(=O)N[C@@H](CCCNC(=N)N)C(=O)N[C@@H](CC2CCCCC2)C(N)=O)[C@@H](C)O)C1
B11: Ac-[D-Hyp24, Cha27,28,36, Aib31]-PYY(23-36) (peptide)
peptide: Ac-S[dHyp]RH[Cha][Cha]NL[Aib]TRQR[Cha]-NH2
SMILES: CC(=O)N[C@@H](CO)C(=O)N1C[C@@H](O)C[C@@H]1C(=O)N[C@@H](CCCNC(=N)N)C(=O)N[C@@H](Cc1c[nH]cn1)C(=O)N[C@@H](CC1CCCCC1)C(=O)N[C@@H](CC1CCCCC1)C(=O)N[C@@H](CC(N)=O)C(=O)N[C@@H](CC(C)C)C(=O)NC(C)(C)C(=O)N[C@H](C(=O)N[C@@H](CCCNC(=N)N)C(=O)N[C@@H](CCC(N)=O)C(=O)N[C@@H](CCCNC(=N)N)C(=O)N[C@@H](CC1CCCCC1)C(N)=O)[C@@H](C)O
B12: Ac-[Phe23, D-Pro24, Abu26, Cha27,28,36, Aib31]-PYY(23-36) (peptide)
peptide: Ac-F[dP]R[Abu][Cha][Cha]NL[Aib]TRQR[Cha]-NH2
SMILES: CC[C@H](NC(=O)[C@H](CCCNC(=N)N)NC(=O)[C@H]1CCCN1C(=O)[C@H](Cc1ccccc1)NC(C)=O)C(=O)N[C@@H](CC1CCCCC1)C(=O)N[C@@H](CC1CCCCC1)C(=O)N[C@@H](CC(N)=O)C(=O)N[C@@H](CC(C)C)C(=O)NC(C)(C)C(=O)N[C@H](C(=O)N[C@@H](CCCNC(=N)N)C(=O)N[C@@H](CCC(N)=O)C(=O)N[C@@H](CCCNC(=N)N)C(=O)N[C@@H](CC1CCCCC1)C(N)=O)[C@@H](C)O
B13: Benzoyl-[His27, Cha28,36, Aib31]-PYY(25-36) (peptide)
peptide: Bz-RHH[Cha]NL[Aib]TRQR[Cha]-NH2
SMILES: CC(C)C[C@H](NC(=O)[C@H](CC(N)=O)NC(=O)[C@H](CC1CCCCC1)NC(=O)[C@H](Cc1c[nH]cn1)NC(=O)[C@H](Cc1c[nH]cn1)NC(=O)[C@H](CCCNC(=N)N)NC(=O)c1ccccc1)C(=O)NC(C)(C)C(=O)N[C@H](C(=O)N[C@@H](CCCNC(=N)N)C(=O)N[C@@H](CCC(N)=O)C(=O)N[C@@H](CCCNC(=N)N)C(=O)N[C@@H](CC1CCCCC1)C(N)=O)[C@@H](C)O
B14: Benzoyl-[Nva27, Cha28,36, Aib31]-PYY(25-36) (peptide)
peptide: Bz-RH[Nva][Cha]NL[Aib]TRQR[Cha]-NH2
SMILES: CCC[C@H](NC(=O)[C@H](Cc1c[nH]cn1)NC(=O)[C@H](CCCNC(=N)N)NC(=O)c1ccccc1)C(=O)N[C@@H](CC1CCCCC1)C(=O)N[C@@H](CC(N)=O)C(=O)N[C@@H](CC(C)C)C(=O)NC(C)(C)C(=O)N[C@H](C(=O)N[C@@H](CCCNC(=N)N)C(=O)N[C@@H](CCC(N)=O)C(=O)N[C@@H](CCCNC(=N)N)C(=O)N[C@@H](CC1CCCCC1)C(N)=O)[C@@H](C)O

molecular target: human Y2 receptor (human) (UniProt P49146); experiment: RBA: [125I]-PYY displacement, hY2R/CHO membranes
Sequence (P49146 whole entry): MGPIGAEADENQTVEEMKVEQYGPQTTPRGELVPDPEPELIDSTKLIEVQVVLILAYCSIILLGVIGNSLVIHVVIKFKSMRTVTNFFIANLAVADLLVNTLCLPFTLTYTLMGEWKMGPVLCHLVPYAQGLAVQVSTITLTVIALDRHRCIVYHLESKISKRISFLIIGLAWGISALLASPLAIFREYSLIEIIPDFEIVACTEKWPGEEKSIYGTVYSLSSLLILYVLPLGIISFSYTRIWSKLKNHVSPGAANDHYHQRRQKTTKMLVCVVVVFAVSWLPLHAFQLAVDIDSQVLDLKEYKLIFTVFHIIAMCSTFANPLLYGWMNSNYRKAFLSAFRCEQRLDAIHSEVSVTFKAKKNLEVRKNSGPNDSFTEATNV

Row | IC50 Ratio (vs PYY(3-36)) | Binder
1 | 6.6 | B1
2 | 49 | B2
3 | 9.9 | B3
4 | 5.2 | B4
5 | 6.1 | B5
6 | 6.9 | B6
7 | 20 | B7
8 | 3.4 | B8
9 | 17 | B9
10 | 11 | B10
11 | 1.1 | B11
12 | 12 | B12
13 | 5.6 | B13
14 | 13 | B14

molecular target: human Y2 receptor (human) (UniProt P49146); experiment: cell-based or functional assay

Row | GBA EC50 Ratio (vs PYY(3-36)), [35S]GTPγS | Binder
15 | 5.3 | B1
16 | 35 | B2
17 | 5.8 | B3
18 | 3.8 | B4
19 | 5.1 | B5
20 | 4 | B6
21 | 8.4 | B7
22 | 2.2 | B8
23 | 10 | B9
24 | 4.7 | B10
25 | 0.9 | B11
26 | 5.9 | B12
27 | 4.3 | B13
28 | 8.6 | B14
